Each sequence was assayed on Escherichia coli TOP10 (assay: shrunken log2 fold change of peptide-encoding DNA abundance (4.5 h post-induction vs induction); higher = less antimicrobial activity (less host growth inhibition)). Details: time post-induction: 4.5 h; library: site-saturation at positions 5, 18, 19, 20.
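Note: peptides expressed intracellularly from a pBAD plasmid library in pooled LB shake-flask culture, induced with 0.3% L-arabinose, DNA abundance read by NGS, three biological replicates, DESeq2 with apeglm shrinkage.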

Row | Sequence | shrunken log2 fold change
1 | RRIRVRPPRLPRPRPRPGKHPRP | -0.391
2 | RRIRSRPPRLPRPRPRPPPFPRP | 0.449
3 | RRIRLRPPRLPRPRPRPYADPRP | -0.135
4 | RRIRVRPPRLPRPRPRPEPKPRP | 0.13
5 | RRIRKRPPRLPRPRPRPGVGPRP | 0.818
6 | RRIRKRPPRLPRPRPRPYYWPRP | -0.281
7 | RRIRERPPRLPRPRPRPLPFPRP | -0.688
8 | RRIRHRPPRLPRPRPRPKQPPRP | -0.00478
9 | RRIRMRPPRLPRPRPRPFDGPRP | 0.136
10 | RRIRRRPPRLPRPRPRPAFEPRP | 0.54
11 | RRIRGRPPRLPRPRPRPDQTPRP | 0.0112
12 | RRIRYRPPRLPRPRPRPKHTPRP | -0.567
13 | RRIRFRPPRLPRPRPRPPPAPRP | 1.49
14 | RRIRTRPPRLPRPRPRPPNTPRP | 0.443
15 | RRIRNRPPRLPRPRPRPRPVPRP | 0.303
16 | RRIRHRPPRLPRPRPRPIKKPRP | -0.06
17 | RRIRARPPRLPRPRPRPDPQPRP | 0.698
18 | RRIRPRPPRLPRPRPRPNIMPRP | -0.694
19 | RRIRGRPPRLPRPRPRPDSRPRP | 0.122
20 | RRIRHRPPRLPRPRPRPSAGPRP | -0.182
21 | RRIRWRPPRLPRPRPRPLCEPRP | 0.337
22 | RRIRHRPPRLPRPRPRPHLPPRP | -0.0497
23 | RRIRVRPPRLPRPRPRPKMQPRP | 0.0937
24 | RRIRSRPPRLPRPRPRPNIFPRP | -0.138
25 | RRIRVRPPRLPRPRPRPSGWPRP | 0.16

Row | Sequence | shrunken log2 fold change
26 | RRIRNRPPRLPRPRPRPELCPRP | 0.232
27 | RRIRCRPPRLPRPRPRPGLLPRP | 0.0187
28 | RRIRCRPPRLPRPRPRPIQIPRP | -0.0558
29 | RRIRTRPPRLPRPRPRPKEMPRP | -0.0567
30 | RRIRTRPPRLPRPRPRPVYVPRP | -0.62
31 | RRIRCRPPRLPRPRPRPGWVPRP | 0.513
32 | RRIRERPPRLPRPRPRPREKPRP | 0.354
33 | RRIRDRPPRLPRPRPRPFKGPRP | -0.617
34 | RRIRHRPPRLPRPRPRPDLKPRP | -0.0314
35 | RRIRDRPPRLPRPRPRPNIWPRP | 0.306
36 | RRIRTRPPRLPRPRPRPTAEPRP | 0.458
37 | RRIRERPPRLPRPRPRPLTCPRP | -0.149
38 | RRIRSRPPRLPRPRPRPACYPRP | -0.0386
39 | RRIRDRPPRLPRPRPRPMISPRP | 0.185
40 | RRIRCRPPRLPRPRPRPFGMPRP | -0.033
41 | RRIRARPPRLPRPRPRPRNCPRP | 0.849
42 | RRIRQRPPRLPRPRPRPHPSPRP | -0.462
43 | RRIRNRPPRLPRPRPRPQYPPRP | -0.571
44 | RRIRPRPPRLPRPRPRPEMVPRP | 0.191
45 | RRIRLRPPRLPRPRPRPKGGPRP | 0.01
46 | RRIRIRPPRLPRPRPRPVDSPRP | 0.0804
47 | RRIRTRPPRLPRPRPRPCDSPRP | -0.0585
48 | RRIRFRPPRLPRPRPRPFSQPRP | -0.452
49 | RRIRCRPPRLPRPRPRPSQYPRP | -0.471
50 | RRIRWRPPRLPRPRPRPDCDPRP | 0.799

Row | Sequence | shrunken log2 fold change
51 | RRIRMRPPRLPRPRPRPFTIPRP | -0.386
52 | RRIRCRPPRLPRPRPRPHPFPRP | -0.0728
53 | RRIRRRPPRLPRPRPRPWPYPRP | 0.131
54 | RRIRLRPPRLPRPRPRPCPYPRP | 0.0232
55 | RRIRKRPPRLPRPRPRPDLCPRP | 0.741
56 | RRIRWRPPRLPRPRPRPCANPRP | 0.0268
57 | RRIRARPPRLPRPRPRPKICPRP | 0.0997
58 | RRIRHRPPRLPRPRPRPMYAPRP | -0.0133
59 | RRIRVRPPRLPRPRPRPCGSPRP | -0.225
60 | RRIRARPPRLPRPRPRPACEPRP | 0.879
61 | RRIRKRPPRLPRPRPRPAETPRP | 0.336
62 | RRIRLRPPRLPRPRPRPVWFPRP | 0.00279
63 | RRIRRRPPRLPRPRPRPKKVPRP | 0.242
64 | RRIRQRPPRLPRPRPRPHWTPRP | -0.0125
65 | RRIRSRPPRLPRPRPRPREDPRP | 0.432
66 | RRIRTRPPRLPRPRPRPQPEPRP | 0.0514
67 | RRIRPRPPRLPRPRPRPIMLPRP | -0.114
68 | RRIRSRPPRLPRPRPRPDGEPRP | 0.0597
69 | RRIRDRPPRLPRPRPRPMCFPRP | 0.0878
70 | RRIRSRPPRLPRPRPRPRLVPRP | 0.356
71 | RRIRRRPPRLPRPRPRPWTEPRP | 0.116
72 | RRIRCRPPRLPRPRPRPERVPRP | 0.361
73 | RRIRCRPPRLPRPRPRPKGQPRP | 0.0213
74 | RRIRVRPPRLPRPRPRPQKIPRP | 0.0538
75 | RRIRIRPPRLPRPRPRPEMTPRP | 0.104

Row | Sequence | shrunken log2 fold change
76 | RRIRKRPPRLPRPRPRPSAKPRP | 0.397
77 | RRIRKRPPRLPRPRPRPQWDPRP | 0.00929
78 | RRIRPRPPRLPRPRPRPFYDPRP | -0.138
79 | RRIRPRPPRLPRPRPRPIYHPRP | -0.466
80 | RRIRERPPRLPRPRPRPLLFPRP | -0.121
81 | RRIRKRPPRLPRPRPRPILVPRP | 0.0199
82 | RRIRMRPPRLPRPRPRPVRDPRP | 0.882
83 | RRIRVRPPRLPRPRPRPHQIPRP | 0.12
84 | RRIRERPPRLPRPRPRPIPIPRP | -0.027
85 | RRIRCRPPRLPRPRPRPVCRPRP | -0.0309
86 | RRIRFRPPRLPRPRPRPFTHPRP | -0.296
87 | RRIRPRPPRLPRPRPRPIEYPRP | 0.0392
88 | RRIRQRPPRLPRPRPRPSTNPRP | -0.364
89 | RRIRYRPPRLPRPRPRPMNFPRP | -0.0135
90 | RRIRRRPPRLPRPRPRPNHGPRP | -0.0793
91 | RRIRARPPRLPRPRPRPGQSPRP | 0.266
92 | RRIRERPPRLPRPRPRPRYWPRP | 0.185
93 | RRIRTRPPRLPRPRPRPGASPRP | 0.156
94 | RRIRMRPPRLPRPRPRPEMHPRP | 0.346
95 | RRIRSRPPRLPRPRPRPFTMPRP | -0.811
96 | RRIRYRPPRLPRPRPRPMMIPRP | -0.00702
97 | RRIRTRPPRLPRPRPRPICDPRP | -0.168
98 | RRIRTRPPRLPRPRPRPFYRPRP | -0.189
99 | RRIRRRPPRLPRPRPRPRDSPRP | -0.0748
100 | RRIRVRPPRLPRPRPRPVCFPRP | 0.147

Row | Sequence | shrunken log2 fold change
101 | RRIRFRPPRLPRPRPRPMHRPRP | -0.0791
102 | RRIRGRPPRLPRPRPRPTQVPRP | 0.353
103 | RRIRVRPPRLPRPRPRPWPYPRP | -0.197
104 | RRIRKRPPRLPRPRPRPQDWPRP | 0.413
105 | RRIRRRPPRLPRPRPRPGFPPRP | 3.88
106 | RRIRRRPPRLPRPRPRPDIIPRP | -0.135
107 | RRIRARPPRLPRPRPRPGITPRP | 0.335
108 | RRIRKRPPRLPRPRPRPWQTPRP | 0.146
109 | RRIRCRPPRLPRPRPRPMDMPRP | 0.00534
110 | RRIRKRPPRLPRPRPRPHQQPRP | -0.0506
111 | RRIRIRPPRLPRPRPRPAMAPRP | -0.237
112 | RRIRLRPPRLPRPRPRPHHQPRP | -0.162
113 | RRIRYRPPRLPRPRPRPDKKPRP | -0.0333
114 | RRIRKRPPRLPRPRPRPSHCPRP | -0.578
115 | RRIRARPPRLPRPRPRPGQIPRP | 0.216
116 | RRIRERPPRLPRPRPRPKCCPRP | -0.191
117 | RRIRIRPPRLPRPRPRPCVFPRP | -1.22
118 | RRIRKRPPRLPRPRPRPCHNPRP | -0.111
119 | RRIRSRPPRLPRPRPRPLEMPRP | -0.314
120 | RRIRHRPPRLPRPRPRPLVDPRP | -0.219
121 | RRIRRRPPRLPRPRPRPFPSPRP | 0.114
122 | RRIRDRPPRLPRPRPRPCLRPRP | -0.188
123 | RRIRMRPPRLPRPRPRPCEHPRP | 0.249
124 | RRIRVRPPRLPRPRPRPHHWPRP | -0.157
125 | RRIRPRPPRLPRPRPRPYQTPRP | 0.0331

Source: the supplement of paper PMC9112550, “Optimization of the antimicrobial peptide Bac7 by deep mutational scanning” (BMC Biology, 2022)
